Measured values from publication PMC4104026.

Target: Hfq (His6-tagged) (UniProt P0A6X3)
Experiment: EMSA
Conditions: Single-RNA EMSA: 10 mM Tris-HCl pH 7.4, 0.1 mM EDTA, 10 mM NH4Cl, 10 mM NaCl, 10 mM KCl, 1 mg/ml tRNA, 4% glycerol, RT 5 min; ~40 fmol RNA (legend; Methods say …)

Chain of Hfq (His6-tagged) (P0A6X3 whole entry): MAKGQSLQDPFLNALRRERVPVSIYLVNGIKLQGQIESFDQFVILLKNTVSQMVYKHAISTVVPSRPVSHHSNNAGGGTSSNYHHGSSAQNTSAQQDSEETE

Q: With DppA mRNA 5' 166 nt (DppASal) as the substance, how does the binding signal (fold higher affinity than AgvB and GcvB) read?
A: 10
